± gives the standard deviation of the averaged measurements.
Assay: total protein half-life in vivo (active degradation + dilution); higher = more stable protein
[1] = E. coli NCM3722 delta-clpP delta-lon delta-hslV, growth: N-lim chemostat, doubling time 6 h
[2] = E. coli NCM3722 delta-clpP, growth: N-lim chemostat, doubling time 6 h
[3] = E. coli NCM3722 delta-hslV, growth: N-lim chemostat, doubling time 6 h
[4] = E. coli NCM3722 delta-lon, growth: N-lim chemostat, doubling time 6 h
[5] = E. coli NCM3722 delta-smpB, growth: N-lim chemostat, doubling time 6 h
[6] = wild type E. coli NCM3722, growth: C-lim chemostat, doubling time 3 h
[7] = wild type E. coli NCM3722, growth: C-lim chemostat, doubling time 6 h
[8] = wild type E. coli NCM3722, growth: C-lim chemostat, doubling time 12 h
[9] = wild type E. coli NCM3722, growth: N-lim chemostat, doubling time 6 h
[10] = wild type E. coli NCM3722, growth: N-lim chemostat, doubling time 12 h
[11] = wild type E. coli NCM3722, growth: P-lim chemostat, doubling time 12 h
[12] = wild type E. coli NCM3722, growth: P-lim chemostat, doubling time 6 h

Row | Sequence | total protein half-life in vivo [1] [h] | total protein half-life in vivo [2] [h] | total protein half-life in vivo [3] [h] | total protein half-life in vivo [4] [h] | total protein half-life in vivo [5] [h] | total protein half-life in vivo [6] [h] | total protein half-life in vivo [7] [h] | total protein half-life in vivo [8] [h] | total protein half-life in vivo [9] [h] | total protein half-life in vivo [10] [h] | total protein half-life in vivo [11] [h] | total protein half-life in vivo [12] [h]
1 | MKRSISFRPTLLALVLATNFPVAHAAVPKDMLVIGKAADPQTLDPAVTIDNNDWTVTYPSYQRLVQYKTDGDKGSTDVEGDLASSWKASDDQKEWTFTLKDNAKFADGTPVTAEAVKLSFERLLKIGQGPAEAFPKDLKIDAPDEHTVKFTLSQPFAPFLYTLANDGASIINPAVLKEHAADDARGFLAQNTAGSGPFMLKSWQKGQQLVLVPNPHYPGNKPNFKRVSVKIIGESASRRLQLSRGDIDIADALPVDQLNALKQENKVNVAEYPSLRVTYLYLNNSKAPLNQADLRRAISWSTDYQGMVNGILSGNGKQMRGPIPEGMWGYDATAMQYNHDETKAKAEWDKVTSKPTSLTFLYSDNDPNWEPIALATQSSLNKLGIIVKLEKLANATMRDRVGKGDYDIAIGNWSPDFADPYMFMNYWFESDKKGLPGNRSFYENSEVDKLLRNALATTDQTQRTRDYQQAQKIVIDDAAYVYLFQKNYQLAMNKEVKGFVFNPMLEQVFNINTMSK | 4.61 ± 0.059 | 5.72 ± 1.4 | 5 ± 0.15 | 5.74 ± 0.097 | 5.02 ± 0.13 | 2.73 ± 0.04 | 4.77 ± 0.049 | 7.85 ± 0.62 | 5.26 ± 0.5 | 7.37 ± 0.29 | 12.42 ± 0.093 | 
2 | MKRTKSIRHASFRKNWSARHLTPVALAVATVFMLAGCEKSDETVSLYQNADDCSAANPGKSAECTTAYNNALKEAERTAPKYATREDCVAEFGEGQCQQAPAQAGMAPENQAQAQQSSGSFWMPLMAGYMMGRLMGGGAGFAQQPLFSSKNPASPAYGKYTDATGKNYGAAQPGRTMTVPKTAMAPKPATTTTVTRGGFGESVAKQSTMQRSATGTSSRSMGG [P0ADT2] | 3.82 ± 0.98 | 4.17 ± 0.3 | 3.89 ± 0.12 | 3.69 ± 0.096 | 3.22 ± 0.56 | 1.83 ± 0.4 | 3.71 ± 0.29 | 5.86 ± 0.6 | 4.08 ± 0.88 | 7.11 ± 0.26 | 7.48 ± 0.2 | 3.45 ± 0.38
3 | MKRVLIPGVILCGADVAQAVDDKNMYMHFFEEMTVYAPVPVPVNGNTHYTSESIERLPTGNGNISDLLRTNPAVRMDSTQSTSLNQGDIRPEKISIHGASPYQNAYLIDGISATNNLNPANESDASSATNISGMSQGYYLDVSLLDNVTLYDSFVPVEFGRFNGGVIDAKIKRFNADDSKVKLGYRTTRSDWLTSHIDENNKSAFNQGSSGSTYYSPDFKKNFYTLSFNQELADNFGVTAGLSRRQSDITRADYVSNDGIVAGRAQYKNVIDTALSKFTWFASDRFTHDLTLKYTGSSRDYNTSTFPQSDREMGNKSYGLAWDMDTQLAWAKLRTTVGWDHISDYTRHDHDIWYTELSCTYGDITGRCTRGGLGHISQAVDNYTFKTRLDWQKFAVGNVSHQPYFGAEYIYSDAWTERHNQSESYVINAAGKKTNHTIYHKGKGRLGIDNYTLYMADRISWRNVSLMPGVRYDYDNYLSNHNISPRFMTEWDIFANQTSMITAGYNRYYGGNILDMGLRDIRNSWTESVSGNKTLTRYQDLKTPYNDELAMGLQQKIGKNVIARANYVYREAHDQISKSSRTDSATKTTITEYNNDGKTKTHSFSLSFELAEPLHIRQVDINPQIVFSYIKSKGNLSLNNGYEESNTGDNQVVYNGNLVSYDSVPVADFNNPLKISLNMDFTHQPSGLVWANTLAWQEARKARIILGKTNAQYISEYSDYKQYVDEKLDSSLTWDTRLSWTPQFLQQQNLTISADILNVLDSKTAVDTTNTGVATYASGRTFWLDVSMKF | 5.87 ± 0.22 | 5.83 ± 0.27 | > 8 |  | 5.751 ± 0.012 | 3.16 ± 0.12 | 6.17 ± 0.26 | 9.31 ± 0.88 | 6.68 | 12.2 ± 1.3 | 14.44 ± 0.031 | 6.72
4 | MKRVLTALAATLPFAANAADAISGAVERQPTNWQAIIMFLIFVVFTLGITYWASKRVRSRSDYYTAGGNITGFQNGLAIAGDYMSAASFLGISALVFTSGYDGLIYSLGFLVGWPIILFLIAERLRNLGRYTFADVASYRLKQGPIRILSACGSLVVVALYLIAQMVGAGKLIELLFGLNYHIAVVLVGVLMMMYVLFGGMLATTWVQIIKAVLLLFGASFMAFMVMKHVGFSFNNLFSEAMAVHPKGVDIMKPGGLVKDPISALSLGLGLMFGTAGLPHILMRFFTVSDAREARKSVFYATGFMGYFYILTFIIGFGAIMLVGANPEYKDAAGHLIGGNNMAAVHLANAVGGNLFLGFISAVAFATILAVVAGLTLAGASAVSHDLYANVFKKGATEREELRVSKITVLILGVIAIILGVLFENQNIAFMVGLAFAIAASCNFPIILLSMYWSKLTTRGAMMGGWLGLITAVVLMILGPTIWVQILGHEKAIFPYEYPALFSITVAFLGIWFFSATDNSAEGARERELFRAQFIRSQTGFGVEQGRAH |  |  |  |  |  | > 4 | 6.1 ± 0.31 | 12.9 ± 1.4 |  |  | 8.62 | 
5 | MKRYTPDFPEMMRLCEMNFSQLRRLLPRNDAPGETVSYQVANAQYRLTIVESTRYTTLVTIEQTAPAISYWSLPSMTVRLYHDAMVAEVCSSQQIFRFKARYDYPNKKLHQRDEKHQINQFLADWLRYCLAHGAMAIPVY [P0ADU7] | 6.32 ± 0.34 | 5.73 ± 0.49 | 1.79 | 2.11 ± 0.32 | 2.25 ± 0.22 |  | 2.76 ± 0.49 |  | 2.03 | 2.84 | 7.5 ± 0.71 | 3.67 ± 0.23
